Measured values published in patent publication US20100266586A1.
Values belong to the binder of their own block, whether it stands above or below them.

Experiments:
[1] = molecular target: FVIII in a pool of normal human plasma (human), P00451; experiment: cell-based or functional assay
[2] = molecular target: full length recombinant FVIII (Recombinate, Baxter), P00451; experiment: cell-based or functional assay
full length recombinant FVIII (Recombinate, Baxter), P00451, sequence (P00451 20-2351): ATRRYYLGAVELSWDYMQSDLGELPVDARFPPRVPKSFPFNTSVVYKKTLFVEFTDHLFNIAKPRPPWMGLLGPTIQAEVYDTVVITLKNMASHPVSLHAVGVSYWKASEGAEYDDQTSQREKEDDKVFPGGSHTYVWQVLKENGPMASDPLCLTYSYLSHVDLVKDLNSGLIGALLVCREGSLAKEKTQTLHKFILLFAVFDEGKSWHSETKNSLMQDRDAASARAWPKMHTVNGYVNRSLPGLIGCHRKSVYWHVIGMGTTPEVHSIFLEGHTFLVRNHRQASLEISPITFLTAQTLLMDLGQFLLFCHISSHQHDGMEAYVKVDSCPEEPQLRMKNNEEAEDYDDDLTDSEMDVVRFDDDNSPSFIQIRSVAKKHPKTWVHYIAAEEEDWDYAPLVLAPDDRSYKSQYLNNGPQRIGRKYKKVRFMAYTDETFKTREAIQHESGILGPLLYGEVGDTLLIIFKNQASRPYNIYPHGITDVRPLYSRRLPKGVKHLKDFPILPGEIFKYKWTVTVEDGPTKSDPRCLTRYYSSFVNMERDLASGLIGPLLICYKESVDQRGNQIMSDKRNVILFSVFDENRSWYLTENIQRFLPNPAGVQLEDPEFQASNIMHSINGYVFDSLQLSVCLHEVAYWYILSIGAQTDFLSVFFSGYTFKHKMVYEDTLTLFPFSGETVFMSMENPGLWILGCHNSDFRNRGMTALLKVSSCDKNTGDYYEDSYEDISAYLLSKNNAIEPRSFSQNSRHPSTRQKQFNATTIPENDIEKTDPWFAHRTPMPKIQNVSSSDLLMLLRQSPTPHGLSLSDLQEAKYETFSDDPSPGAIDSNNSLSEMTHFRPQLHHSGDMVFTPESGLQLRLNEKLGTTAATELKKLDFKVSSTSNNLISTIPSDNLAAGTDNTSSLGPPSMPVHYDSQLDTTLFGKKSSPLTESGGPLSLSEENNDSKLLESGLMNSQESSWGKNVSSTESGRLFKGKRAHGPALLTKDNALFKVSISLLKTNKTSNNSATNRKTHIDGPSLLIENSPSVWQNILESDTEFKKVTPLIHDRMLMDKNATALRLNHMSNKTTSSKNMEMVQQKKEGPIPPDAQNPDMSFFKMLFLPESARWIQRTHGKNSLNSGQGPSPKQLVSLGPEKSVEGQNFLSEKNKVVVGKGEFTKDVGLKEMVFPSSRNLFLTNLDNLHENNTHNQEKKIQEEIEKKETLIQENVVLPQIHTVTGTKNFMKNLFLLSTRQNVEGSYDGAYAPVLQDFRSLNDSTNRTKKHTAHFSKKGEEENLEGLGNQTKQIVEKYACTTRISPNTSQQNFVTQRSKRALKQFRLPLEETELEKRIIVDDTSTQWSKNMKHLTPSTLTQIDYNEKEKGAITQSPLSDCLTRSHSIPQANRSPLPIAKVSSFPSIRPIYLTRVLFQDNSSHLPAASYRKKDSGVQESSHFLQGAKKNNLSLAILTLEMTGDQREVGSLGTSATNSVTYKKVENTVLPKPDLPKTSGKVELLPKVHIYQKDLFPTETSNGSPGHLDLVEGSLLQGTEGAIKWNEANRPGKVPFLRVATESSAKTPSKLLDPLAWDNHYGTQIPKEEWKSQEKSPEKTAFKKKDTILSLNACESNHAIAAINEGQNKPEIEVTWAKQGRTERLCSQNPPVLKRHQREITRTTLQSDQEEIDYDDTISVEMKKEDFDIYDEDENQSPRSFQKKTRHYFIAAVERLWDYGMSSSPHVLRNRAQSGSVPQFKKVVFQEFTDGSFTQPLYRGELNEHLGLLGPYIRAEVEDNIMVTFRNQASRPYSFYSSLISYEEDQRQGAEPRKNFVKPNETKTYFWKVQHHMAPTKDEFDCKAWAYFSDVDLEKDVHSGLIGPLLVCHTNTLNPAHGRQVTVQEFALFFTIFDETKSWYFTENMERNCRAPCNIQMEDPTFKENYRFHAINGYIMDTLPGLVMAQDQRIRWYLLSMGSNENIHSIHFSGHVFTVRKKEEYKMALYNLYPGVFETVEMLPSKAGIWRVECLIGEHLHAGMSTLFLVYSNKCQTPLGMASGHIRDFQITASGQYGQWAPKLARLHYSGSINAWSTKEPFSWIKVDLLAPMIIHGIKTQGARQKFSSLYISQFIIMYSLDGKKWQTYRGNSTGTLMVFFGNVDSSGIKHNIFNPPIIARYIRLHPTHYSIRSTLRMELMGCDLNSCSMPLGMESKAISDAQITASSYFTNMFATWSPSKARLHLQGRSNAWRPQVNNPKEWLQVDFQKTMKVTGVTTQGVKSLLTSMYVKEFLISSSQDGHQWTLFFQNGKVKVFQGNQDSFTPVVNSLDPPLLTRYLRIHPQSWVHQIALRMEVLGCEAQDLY

FVIII in a pool of normal human plasma (human), P00451, sequence (P00451 20-2351): as above

inhibition of FVIII activity (chromogenic assay, normal human plasma) [1]: 90%
maximal inhibition of FVIII activity (Bethesda assay, chromogenic FVIII assay) [1]: 90%
B1: Krix-1 (human monoclonal antibody KRIX-1 produced in a human lymphoblastoid cell line, native glycosylation) (antibody, human IgG4, V domains shown)
VH: QVQLVQSGAEVKKPGASVKVSCKTSGYNFTGYSASGHIFTAYSVHWVRQAPGQGLEWMGRINPNSGATDYAHKFQGRVTMSRDTSISTAYMELSRLTSDDTAMYYCARADNYFDIVTGYTSHYFDYWGRGTLVTVSSASTKGPSVF
VL: EIVLTQSPGTLSLSPGERATLSCRASQSVASAYLAWYQQKPGQAPRLLIYGASSRATDIPHRFSGSGSGTDFTLTISRLEPEDFAVYYCQQYGTSALLTFGGGTKVEIKRTVAAPSVFIFPPS
modifications: here or on the partner: N-linked glycosylation site at Asn47-Thr49, native glycan as made by the lymphoblastoid cell line

inhibition of FVIII activity (chromogenic assay, normal human plasma) [1]: 50%
maximal inhibition (plateau inhibition) of FVIII activity (Bethesda assay, chromogenic FVIII assay) [1]: 50%
B2: deglycosylated KRIX-1 (Krix-1 treated with N-glycosidase-F) (antibody, IgG4, V domains shown)
VH: B1 VH
VL: B1 VL
modifications: here or on the partner: N-linked glycan removed by N-glycosidase-F (2 U/ml, 72 h, 37 C)

inhibition of FVIII activity at a final concentration of RHD5 of 100 microgram/ml (Bethesda assay, full length recombinant FVIII) [2]: 98%
inhibition of FVIII activity at a final concentration of RHD5 of 100 microgram/ml (Bethesda assay, plasma) [1]: 97%
B3: RHD5 (human monoclonal antibody from the lymphoblastoid cell line RHD5) (antibody, V domains shown)
VH: QVQLVQSGAEVKKPGSSVMVSCKASGGTFSSFGISWVRQAPGQGLEWVGGIIPIFGTANTARNFQNRVTITADEFTSTAYIRLRSLRSEDTAVYYCVGGRDAYSFDGFDVWGQGTMVTVSSASTKGPSVFP
VL: SSGLTQPHSVSVSPGQTANITCSRDKLGHKFASWYQQKPGQSPALLIYQDSKRPSGIPERFSGSNSGNTATLTISGTQAMDEADYYCQAWDNTTAVFGGGTKLTVLSQPKAAPSVTLFPPS
